This is an account of results in US20210054071A1 (NANJING LEGEND BIOTECH, published 2021).

Assay [1] addresses T1, murine TIGIT expressed on CHO-K1 cells (murine, UniProt P86176 29-249).
T1 construct: whole, on cells; also called CHO/mouse TIGIT; mouse TIGIT expressed on CHO cells
T1 sequence (looked up): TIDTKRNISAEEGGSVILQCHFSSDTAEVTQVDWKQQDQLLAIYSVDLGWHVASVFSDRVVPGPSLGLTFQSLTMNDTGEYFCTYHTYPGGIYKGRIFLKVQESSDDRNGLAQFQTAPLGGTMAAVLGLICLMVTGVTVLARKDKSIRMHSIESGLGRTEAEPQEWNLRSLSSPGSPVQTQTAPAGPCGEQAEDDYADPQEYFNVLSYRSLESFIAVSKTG
In words: FACS, CHO-K1 cells expressing murine TIGIT. For orientation: Flow cytometry measures light scatter and fluorescence of single cells or particles in a stream.
Experimental: (§1) To determine cell binding EC₅₀, CHO—K1 cells expressing human, cynomolgus or murine TIGIT were harvested and incubated with gradient concentrations of anti-TIGIT sdAb-Fc fusion proteins, followed by fluorophore-labeled secondary antibodies against human Fc. […] Samples were analyzed with flow cytometry.

Assay [2] has as its target T2, human TIGIT expressed on CHO-K1 cells (human, UniProt Q495A1 22-244).
T2 construct: also called CHO/human TIGIT cells; CHO-TIGIT cells
T2 sequence: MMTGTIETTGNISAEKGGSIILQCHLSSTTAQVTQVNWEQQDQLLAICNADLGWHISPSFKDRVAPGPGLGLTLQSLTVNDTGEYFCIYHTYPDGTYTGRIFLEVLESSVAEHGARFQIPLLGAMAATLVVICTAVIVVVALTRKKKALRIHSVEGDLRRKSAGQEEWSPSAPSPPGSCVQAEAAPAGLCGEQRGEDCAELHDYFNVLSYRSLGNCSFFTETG
In words: FACS, CHO-K1 cells expressing human TIGIT.
Experimental: as §1

The target in assay [3] is T2, human TIGIT expressed on CHO-K1 cells. In words: FACS competition, biotinylated CD155-Fc on CHO/human TIGIT cells.
Experimental: as §1
The next assay deals with T3, murine TIGIT-Fc (murine, UniProt P86176 29-148, limits assumed).
T3 construct: not shown: Fc part, detected with a secondary antibody against human Fc
T3 sequence (looked up): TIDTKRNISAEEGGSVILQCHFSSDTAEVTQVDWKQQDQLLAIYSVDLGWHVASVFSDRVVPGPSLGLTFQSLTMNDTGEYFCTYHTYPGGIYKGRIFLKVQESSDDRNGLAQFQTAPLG
In words: FACS competition, murine TIGIT-Fc binding to CT26 cells (murine CD155).

B1: 10A7 mAb (antibody, human IgG1, kappa, V domains shown)
VH: EVQLVESGGGLTQPGKSLKLSCEASGFTFSSFTMHWVRQSPGKGLEWVAFIRSGSGIVFYADAVRGRFTISRDNAKNLLFLQMNDLKSEDTAMYYCARRPLGHNTFDSWGQGTLVTVSS
VL: DIVMTQSPSSLAVSPGEKVTMTCKSSQSLYYSGVKENLLAWYQQKPGQSPKLLIYYASIRFTGVPDRFTGSGSGTDYTLTITSVQAEDMGQYFCQQGINNPLTFGDGTKLEIKR
Usually EC50 stands for the concentration needed to bring the measured effect to its halfway point. A low value points to an effect from little substance. B1: the concentration for a half-maximal effect (EC50) in assay [1] was 0.709 nM; in assay [2], 4.06 nM; in assay [3] it was 5.27 nM; with murine TIGIT-Fc, 71.3 nM.
